# Measured values taken from patent publication US20250154277A1 (CONCEPT TO MEDICINE BIOTECH, published 2025).
# T1: human 5T4-His protein (human, UniProt Q13641 32-355)
# T1 construct: also called recombinant 5T4 protein (human 5T4-his tag); human 5T4 protein; not shown: His tag
# T1 sequence (looked up): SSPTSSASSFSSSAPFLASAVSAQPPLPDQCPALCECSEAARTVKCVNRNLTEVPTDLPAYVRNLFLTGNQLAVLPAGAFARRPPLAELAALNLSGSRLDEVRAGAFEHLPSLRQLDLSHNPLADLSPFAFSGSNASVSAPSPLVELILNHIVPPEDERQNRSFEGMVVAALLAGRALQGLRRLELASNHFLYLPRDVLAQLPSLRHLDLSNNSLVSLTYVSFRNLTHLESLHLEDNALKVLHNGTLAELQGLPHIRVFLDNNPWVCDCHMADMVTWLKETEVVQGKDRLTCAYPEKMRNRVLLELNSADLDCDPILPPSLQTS
# Experiments:
# human 5T4-His protein [1] = molecular target: T1, human 5T4-His protein; test: ELISA, coated 5T4-His
# Procedure: To evaluate the binding activity of 14G12 humanized antibodies to human 5T4, the 14G12 chimeric antibody along with 14G12 humanized mAbs were subjected to ELISA test.
# Briefly, microtiter plates were coated with human 5T4-His protein at 1 μg/ml in PBS, 100 μl/well at 4° C. overnight, then blocked with […]. Serial dilutions of antibodies were added to each well and incubated for 1 hour at 37° C. The plates were washed with PBS/Tween and then incubated with Goat Anti-Human IgG-HRP for 30 mins at 37° C. After washing, the plates were developed with TMB substrate and analyzed by spectrophotometer at OD 450 nm. As shown in FIG. 10 and Table 6, most of the humanized antibodies bound to human 5T4 at high activity.
# human 5T4-His protein [2] = molecular target: T1, human 5T4-His protein; test: SPR Biacore, Protein A capture
# Procedure: The binding of the 14G12 humanized antibodies to recombinant 5T4 protein (human 5T4-his tag) was tested with Biacore using a capture method. The mAbs were captured using Protein A chip. Serial dilution of human 5T4-his tag protein was injected over captured antibody for 120 s-180 s at a flow rate of 30 μl/min. The antigen was allowed to dissociate for 360 s-1000 s. All the experiments were carried out on a Biacore T200. Data analysis was carried out using the Biacore T200 evaluation software.
Binder,EC50 (human 5T4-His protein [1]) [µg/mL],Kd (human 5T4-His protein [2]) [nM],koff (human 5T4-His protein [2]) [s⁻¹],kon (human 5T4-His protein [2]) [M⁻¹ s⁻¹]
"Hu14G12-41 (antibody, V domains shown, humanized) VH: QVQLVQSGAEVKKPGASVKVSCKASGYAFSSSWMNWVRQAPGQRLEWMGRIYREDGHTNYNGKFKGRVTITADKSATTAYMELSSLRSEDTAVYYCANGGAMDYWGQGTLVTVSS VL: DIVMTQSPDSLAVSLGERATINCRASQDISNYLNWYQQKPGQPPKLLIYYTSRLHSGVPDRFSGSGSGTDYTLTISSLQAEDIAVYFCQQDNTLPWTFGGGTKVEIK",0.0047,–,–,–
"Hu14G12-46 (antibody, V domains shown, humanized) VH: QVQLVQSGAEVKKPGASVKVSCKASGYAFSSSWMNWVRQAPGQGLEWMGRIYREDGHTNYNGKFKGRVTMTADKSTTTAYMELRSLRSDDTAVYYCANGGAMDYWGQGTLVTVSS VL: DIVMTQSPDSLAVSLGERATINCRASQDISNYLNWYQQKPGQPPKLLIYYTSRLHSGVPDRFSGSGSGTDYTLTISSLQAEDIAVYFCQQDNTLPWTFGGGTKVEIK",0.023,–,–,–
"Hu14G12-2 (antibody, V domains shown, humanized) VH: EVQLVQSGAEVKKPGATVKISCKVSGYAFSSSWMNWVQQAPGKGLEWMGRIYREDGHTNYNGKFKGRVTITADTSTDTAYMELSSLRSEDTAVYYCATGGAMDYWGQGTLVTVSS VL: DIQMTQSPSSLSASVGDRVTITCRASQDISNYLNWYQQKPGKAPKLLIYYTSRLHSGVPSRFSGSGSGTDYTFTISSLQPEDIATYFCQQDNTLPWTFGGGTKLEIK",0.021,21.5,0.00436,203000
"Hu14G12-23 (antibody, V domains shown, humanized) VH: QVQLVQSGAEVKKPGSSVKVSCKASGYAFSSSWMNWVRQAPGQGLEWMGRIYREDGHTNYNGKFKGRVTITADKSTTTAYMELSSLRSEDTAVYYCANGGAMDYWGQGTLVTVSS VL: DIQMTQSPSSLSASVGDRVTITCRASQDISNYLNWYQQKPGKAPKLLIYYTSRLHSGVPSRFSGSGSGTDYTFTISSLQPEDIATYFCQQDNTLPWTFGGGTKVEIK",0.0071,2.58,0.000908,352000
"Hu14G12-29 (antibody, V domains shown, humanized) VH: QVQLVQSGAEVKKPGASVKVSCKASGYAFSSSWMNWVRQAPGQGLEWMGRIYREDGHTNYNGKFKGRVTMTADKSITTAYMELSRLRSDDTAVYYCANGGAMDYWGQGTLVTVSS VL: DIQMTQSPSSLSASVGDRVTITCRASQDISNYLNWYQQKPGKAPKLLIYYTSRLHSGVPSRFSGSGSGTDYTLTISSLQPEDIATYFCQQDNTLPWTFGGGTKVEIK",0.0067,2.14,0.0011,514000
"Hu14G12-10 (antibody, V domains shown, humanized) VH: EVQLVQSGAEVKKPGATVKISCKVSGYAFSSSWMNWVKQAPGKGLEWIGRIYREDGHTNYNGKFKGRATITADTSTTTAYMELSSLRSEDTAVYFCANGGAMDYWGQGTLVTVSS VL: DIQMTQSPSSLSASVGDRVTITCRASQDISNYLNWYQQKPGKAPKLLIYYTSRLHSGVPSRFSGSGSGTDYTFTISSLQPEDIATYFCQQDNTLPWTFGGGTKLEIK",0.015,2.42,0.000512,212000
"Hu14G12-6 (antibody, V domains shown, humanized) VH: EVQLVQSGAEVKKPGATVKISCKVSGYAFSSSWMNWVQQAPGKGLEWIGRIYREDGHTNYNGKFKGRVTITADTSTDTAYMELSSLRSEDTAVYFCANGGAMDYWGQGTLVTVSS VL: DIQMTQSPSSLSASVGDRVTITCRASQDISNYLNWYQQKPGKAPKLLIYYTSRLHSGVPSRFSGSGSGTDYTFTISSLQPEDIATYFCQQDNTLPWTFGGGTKLEIK",0.01,2.68,0.00077,288000
"Hu14G12-14 (antibody, V domains shown, humanized) VH: EVQLVQSGAEVKKPGATVKISCKASGYAFSSSWMNWVKQAPGKGLEWIGRIYREDGHTNYNGKFKGRATITADTSTTTAYMELSSLRSEDSAVYFCANGGAMDYWGQGTLVTVSS VL: DIQMTQSPSSLSASVGDRVTITCRASQDISNYLNWYQQKPGKAPKLLIYYTSRLHSGVPSRFSGSGSGTDYTFTISSLQPEDIATYFCQQDNTLPWTFGGGTKLEIK",0.014,3.39,0.000701,207000
